From the supplement of paper PMC5998384

Key:
[1] = test system: HeLa Kyoto; assay: solubility in G1/S (NP-40 vs SDS abundance) (log2 ratio); higher = more soluble; conditions: cell cycle stage: G1/S
[2] = test system: HeLa Kyoto; assay: solubility change mitosis vs G1/S (difference of NP-40 vs SDS log2 ratios) (log2 ratio difference); higher = more soluble in mitosis
[3] = test system: HeLa Kyoto; assay: melting temperature (median over replicates), in situ; higher = more thermally stable
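For melting temperature (median over replicates), in situ in this document: HeLa Kyoto cells synchronized by double thymidine or nocodazole block, proteins quantified by TMT10plex mass spectrometry, three independent biological replicates.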
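For solubility change mitosis vs G1/S (difference of NP-40 vs SDS log2 ratios) in this document: synchronized HeLa Kyoto cells (double thymidine block for G1/S, nocodazole release for mitosis), protein amounts in NP-40 versus SDS lysates quantified by mass spectrometry, three biological replicates.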
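For solubility in G1/S (NP-40 vs SDS abundance) in this document: HeLa Kyoto cells arrested at G1/S by double thymidine block, proteins quantified by TMT10plex mass spectrometry in mild NP-40 versus SDS extracts, three biological replicates.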

Substance | solubility in G1/S (log2) [1] | solubility change mitosis (log2) [2] | melting temperature ([3]; cell cycle stage: mitosis) | melting temperature ([3]; cell cycle stage: G1/S)
MAQGWAGFSEEELRRLKQTKDPFEPQRRLPAKKSRQQLQREKALVEQSQKLGLQDGSTSLLPEQLLSAPKQRVNVQKPPFSSPTLPSHFTLTSPVGDGQPQGIESQPKELGLENSHDGHNNVEILPPKPDCKLEKKKVELQEKSRWEVLQQEQRLMEEKNKRKKALLAKAIAERSKRTQAETMKLKRIQKELQALDDMVSADIGILRNRIDQASLDYSYARKRFDRAEAEYIAAKLDIQRKTEIKEQLTEHLCTIIQQNELRKAKKLEELMQQLDVEADEETLELEVEVERLLHEQEVESRRPVVRLERPFQPAEESVTLEFAKENRKCQEQAVSPKVDDQCGNSSSIPFLSPNCPNQEGNDISAALAT [GORAB] | 0.431 | 0.118 | 50.9 °C | 
MLDHKDLEAEIHPLKNEERKSQENLGNPSKNEDNVKSAPPQSRLSRCRAAAFFLSLFLCLFVVFVVSFVIPCPDRPASQRMWRIDYSAAVIYDFLAVDDINGDRIQDVLFLYKNTNSSNNFSRSCVDEGFSSPCTFAAAVSGANGSTLWERPVAQDVALVECAVPQPRGSEAPSACILVGRPSSFIAVNLFTGETLWNHSSSFSGNASILSPLLQVPDVDGDGAPDLLVLTQEREEVSGHLYSGSTGHQIGLRGSLGVDGESGFLLHVTRTGAHYILFPCASSLCGCSVKGLYEKVTGSGGPFKSDPHWESMLNATTRRMLSHSSGAVRYLMHVPGNAGADVLLVGSEAFVLLDGQELTPRWTPKAAHVLRKPIFGRYKPDTLAVAVENGTGTDRQILFLDLGTGAVLCSLALPSLPGGPLSASLPTADHRSAFFFWGLHELGSTSETETGEARHSLYMFHPTLPRVLLELANVSTHIVAFDAVLFEPSRHAAYILLTGPADSEAPGLVSVIKHKVRDLVPSSRVVRLGEGGPDSDQAIRDRFSRLRYQSEA [ITFG3] | 0.275 | 0.0404 | 57.1 °C | 57.6 °C
MMSIKAFTLVSAVERELLMGDKERVNIECVECCGRDLYVGTNDCFVYHFLLEERPVPAGPATFTATKQLQRHLGFKKPVNELRAASALNRLLVLCDNSISLVNMLNLEPVPSGARIKGAATFALNENPVSGDPFCVEVCIISVKRRTIQMFLVYEDRVQIVKEVSTAEQPLAVAVDGHFLCLALTTQYIIHNYSTGVSQDLFPYCSEERPPIVKRIGRQEFLLAGPGGLGMFATVAGISQRAPVHWSENVIGAAVSFPYVIALDDEFITVHSMLDQQQKQTLPFKEGHILQDFEGRVIVATSKGVYILVPLPLEKQIQDLLASRRVEEALVLAKGARRNIPKEKFQVMYRRILQQAGFIQFAQLQFLEAKELFRSGQLDVRELISLYPFLLPTSSSFTRSHPPLHEYADLNQLTQGDQEKMAKCKRFLMSYLNEVRSTEVANGYKEDIDTALLKLYAEADHDSLLDLLVTENFCLLTDSAAWLEKHKKYFALGLLYHYNNQDAAAVQLWVNIVNGDVQDSTRSDLYEYIVDFLTYCLDEELVWAYADWVLQKSEEVGVQVFTKRPLDEQQKNSFNPDDIINCLKKYPKALVKYLEHLVIDKRLQKEEYHTHLAVLYLEEVLLQRASASGKGAEATETQAKLRRLLQKSDLYRVHFLLERLQGAGLPMESAILHGKLGEHEKALHILVHELQDFAAAEDYCLWCSEGRDPPHRQQLFHTLLAIYLHAGPTAHELAVAAVDLLNRHATEFDAAQVLQMLPDTWSVQLLCPFLMGAMRDSIHARRTMQVALGLARSENLIYTYDKMKLKGSSIQLSDKKLCQICQNPFCEPVFVRYPNGGLVHTHCAASRHTNPSSSSPGTRT [TGFBRAP1] | -0.0452 | -0.0966 | 51.1 °C | 
MSDLEDDETPQLSAHALAALQEFYAEQKQQIEPGEDDKYNIGIIEENWQLSQFWYSQETALQLAQEAIAAVGEGGRIACVSAPSVYQKLRELCRENFSIYIFEYDKRFAMYGEEFIFYDYNNPLDLPERIAAHSFDIVIADPPYLSEECLRKTSETVKYLTRGKILLCTGAIMEEQAAELLGVKMCTFVPRHTRNLANEFRCYVNYDSGLDCGI [N6AMT2] | -0.331 | 0.0973 | 50.6 °C | 
MISRHLQNNLMSVDPASSQAMELSDVTLIEGVGNEVMVVAGVVVLILALVLAWLSTYVADSGSNQLLGAIVSAGDTSVLHLGHVDHLVAGQGNPEPTELPHPSEGNDEKAEEAGEGRGDSTGEAGAGGGVEPSLEHLLDIQGLPKRQAGAGSSSPEAPLRSEDSTCLPPSPGLITVRLKFLNDTEELAVARPEDTVGALKSKYFPGQESQMKLIYQGRLLQDPARTLRSLNITDNCVIHCHRSPPGSAVPGPSASLAPSATEPPSLGVNVGSLMVPVFVVLLGVVWYFRINYRQFFTAPATVSLVGVTVFFSFLVFGMYGR [TMUB2] | 0.229 | -0.108 | 54 °C | 55 °C
MDEERALYIVRAGEAGAIERVLRDYSDKHRATFKFESTDEDKRKKLCEGIFKVLIKDIPTTCQVSCLEVLRILSRDKKVLVPVTTKENMQILLRLAKLNELDDSLEKVSEFPVIVESLKCLCNIVFNSQMAQQLSLELNLAAKLCNLLRKCKDRKFINDIKCFDLRLLFLLSLLHTDIRSQLRYELQGLPLLTQILESAFSIKWTDEYESAIDHNGPPLSPQETDCAIEALKALFNVTVDSWKVHKESDSHQFRVMAAVLRHCLLIVGPTEDKTEELHSNAVNLLSNVPVSCLDVLICPLTHEETAQEATTLDELPSNKTAEKETVLKNNTMVYNGMNMEAIHVLLNFMEKRIDKGSSYREGLTPVLSLLTECSRAHRNIRKFLKDQVLPPLRDVTNRPEVGSTVRNKLVRLMTHVDLGVKQIAAEFLFVLCKERVDSLLKYTGYGNAAGLLAARGLLAGGRGDNWYSEDEDTDTEEYKNAKPKEELLKPMGLKPDGTITPLEEALNQYSVIEETSSDTD [RIC8B] | -0.00976 | -0.194 | 49.8 °C | 49.4 °C
MAASTASHRPIKGILKNKTSTTSSMVASAEQPRGNVDEELSKKSQKWDEMNILATYHPADKDYGLMKIDEPSTPYHSMMGDDEDACSDTEATEAMAPDILARKLAAAEGLEPKYRIQEQESSGEEDSDLSPEEREKKRQFEMKRKLHYNEGLNIKLARQLISKDLHDDDEDEEMLETADGESMNTEESNQGSTPSDQQQNKLRSS [PPP1R2] | 0.172 | 0.383 | 52.4 °C | 59.3 °C
MTLIEGVGDEVTVLFSVLACLLVLALAWVSTHTAEGGDPLPQPSGTPTPSQPSAAMAATDSMRGEAPGAETPSLRHRGQAAQPEPSTGFTATPPAPDSPQEPLVLRLKFLNDSEQVARAWPHDTIGSLKRTQFPGREQQVRLIYQGQLLGDDTQTLGSLHLPPNCVLHCHVSTRVGPPNPPCPPGSEPGPSGLEIGSLLLPLLLLLLLLLWYCQIQYRPFFPLTATLGLAGFTLLLSLLAFAMYRP [TMUB1] | 0.566 | 0.143 | 52.5 °C | 51.6 °C
MAGAGGGGCPAGGNDFQWCFSQVKGAIDEDVAEADIISTVEFNYSGDLLATGDKGGRVVIFQREQENKSRPHSRGEYNVYSTFQSHEPEFDYLKSLEIEEKINKIRWLPQQNAAHFLLSTNDKTIKLWKISERDKRAEGYNLKDEDGRLRDPFRITALRVPILKPMDLMVEASPRRIFANAHTYHINSISVNSDHETYLSADDLRINLWHLEITDRSFNIVDIKPANMEELTEVITAAEFHPHQCNVFVYSSSKGTIRLCDMRSSALCDRHSKFFEEPEDPSSRSFFSEIISSISDVKFSHSGRYMMTRDYLSVKVWDLNMESRPVETHQVHEYLRSKLCSLYENDCIFDKFECCWNGSDSAIMTGSYNNFFRMFDRDTRRDVTLEASRESSKPRASLKPRKVCTGGKRRKDEISVDSLDFNKKILHTAWHPVDNVIAVAATNNLYIFQDKIN [PPP2R2D] | -0.162 | -0.168 |  | 53.1 °C
TATDN3 | 0.608 | -0.0652 | 56.3 °C | 56.5 °C
